# Patent US5834184A, “In vivo selection of RNA-binding peptides” (priority 1995, dated 1998)
# B1: N: wild-type phage λ N antiterminator protein (protein, UniProt P03045 1-107, looked up)
# Antitermination protein N: MDAQTRRRERRAEKQAQWKAANPLLVGVSAKPVNRPILSLNRKPKSRVESALNPIDLTVLAEYHKQIESNLQRIERKNQRTWYSKPGERGITCSGRQKIKGKSIPLI
# Assays:
# [1] = Circular dichroism, helical content of synthetic peptides; format: physicochemical; conditions: estimated from ellipticity at 222 nm; 10 mM potassium phosphate pH 7.5, 100 mM KF, 4° C. (FIG. 4B)
# Description: FIG. 4B: Circular dichroism spectra of Rev34-40 (.box-solid.), Rev34-47 (S34) (.smallcircle.), Rev-like peptide clone 24 (.quadrature.), clone 57 peptide (.circle-solid.), and clone 41 peptide (.diamond.).
# Circular dichroism was used to assess whether the selected peptides adopted α-helical conformations. Circular dichroism spectra were measured using an Aviv model 62DS spectropolarimeter. Samples were prepared in 10 mM potassium phosphate buffer, pH 7.5 and 100 mM KF. Spectra were recorded using a 1 cm pathlength cuvette at 4° C. and signal was averaged for 5 sec at each wavelength. Scans were repeated five times and averaged.
# HIV RRE = test: Antitermination assay (β-galactosidase reporter in E. coli), HIV RRE reporter; format: cell-based; parameters: key to X-gal: +++++, 200 units β-galactosidase/1 OD600 unit cells; ++++, 100-200 units; +++, 10-100 units; ++, 2-10 units; +, 1-10 units; -, background; conditions: HIV RRE reporter (Table 1)
# Text: (§1) Synthetic oligonucleotide cassettes encoding HIV Rev (ma[…]-aaaan) (SEQ ID NO: 26), BIV Tat (mg[…]gggn) (SEQ ID NO: 27), and HIV Tat ([…]) (SEQ ID NO: 28) peptides were cloned into the unique BsmI and NcoI sites of pBRptacN^* (Franklin, J. Mol Biol 231, 343 (1993)), creating fusion proteins at amino acid 20 of the λ N protein. The sequence encoding the fusion protein was linked to a tac promoter.
# (§2) A second pACYC-derived vector was constructed encoding a tac promoter linked to the phage λ termination site Nut and a β-galactosidase structural gene. […]
# (§3) Plasmids were transformed into E. coli strain N567 (Franklin & Doelling, J. Bacteriol. 171, 2513 (1989)) and bacteria were grown on LB plates or in tryptone broth containing 50 mg/l ampicillin and/or 15 mg/l chloramphenicol. In the β-galactosidase colony color assay, the number of +s represents visual estimation of blue intensity after growing colonies on plates containing 0.08 mg/ml X-gal and 0.024 mg/ml IPTG (to induce the tac promoters) for ~48 hr at 34° C. β-galactosidase activity was also measured in permeabilized cells using an ONPG colorimetric assay (Sambrook et al. Molecular Cloning (Cold Spring Harbor Laboratory Press, Cold Spring Harbor, 1989)). […]
# HIV TAR = test: Antitermination assay (β-galactosidase reporter in E. coli), HIV TAR reporter; format: cell-based; parameters: key to X-gal: +++++, 200 units β-galactosidase/1 OD600 unit cells; ++++, 100-200 units; +++, 10-100 units; ++, 2-10 units; +, 1-10 units; -, background
# Text: as §1, §2, §3
# [2] = test system: Nut^- (a Nut site deletion) reporter; test: Antitermination assay (β-galactosidase reporter in E. coli), Nut^- reporter; format: cell-based, phage λ; parameters: key to X-gal: +++++, 200 units β-galactosidase/1 OD600 unit cells; ++++, 100-200 units; +++, 10-100 units; ++, 2-10 units; +, 1-10 units; -, background
# Text: as §1, §2, §3
# BIV TAR = test: Antitermination assay (β-galactosidase reporter in E. coli), BIV TAR reporter; format: cell-based; parameters: key to X-gal: +++++, 200 units β-galactosidase/1 OD600 unit cells; ++++, 100-200 units; +++, 10-100 units; ++, 2-10 units; +, 1-10 units; -, background; conditions: BIV TAR reporter (Table 1)
# Text: as §1, §2, §3
# [3] = test system: Nut reporter (λ Nut site, Box B); test: Antitermination assay (β-galactosidase reporter in E. coli), Nut reporter; format: cell-based, phage λ
# Text: as §1, §2, §3
# [4] = colony colour on X-gal/IPTG plates
# [5] = permeabilized cells, 1 hr IPTG induction
Molecule,helical content [1] [%],X-gal (HIV RRE; [4]),ONPG (HIV RRE; permeabilized cells),X-gal (HIV TAR; [4]),ONPG (HIV TAR; permeabilized cells),"X-gal ([2]; colony colour on X-gal/IPTG plates ~48 hr at 34° C., E. coli N567)","ONPG [2, 5]",X-gal (BIV TAR; [4]),ONPG (BIV TAR; permeabilized cells),X-gal ([3]; colony colour on X-gal/IPTG plates ~48 hr at 34° C.),"ONPG [3, 5]"
"14 amino acid wild-type Rev peptide: synthetic 14 amino acid Rev peptide, succinyl capped, four alanines and amide at the C-terminus",11,,,,,,,,,,
B1,,-,2.5 units β-galactosidase/1 OD600,-,2.4 units β-galactosidase/1 OD600,-,1.9 units β-galactosidase/1 OD600,-,2.9 units β-galactosidase/1 OD600,"+++++ (+++++, 200 units β-galactosidase/1 OD600 unit cells)",1020 units β-galactosidase/1 OD600
